Data: the supplement of paper PMC9170038

System: MS2 coat protein
Experiment: apparent KD of MS2 coat protein; designed switch direction (-1 OFF switch, 1 ON switch): -1; higher = weaker reporter binding
Procedure, shortened: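 The reported apparent KD is a per-design median over clusters, from curve fits of normalised cluster fluorescence. Protein titrations used SNAP-549-labelled MS2 coat protein, doubled from 0.7 or 1.5 nM to 3 µM, in Tris-HCl pH 7.5 buffer with KCl, MgCl2, BSA, DTT, tRNA and Tween-20, with no input, 200 uM small-molecule ligand, or an oligonucleotide input. The RNA switches were transcribed on Illumina chips by stalled E. coli RNA polymerase.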

[1] = input ligand: microRNA oligo, concentration not stated
[2] = Eterna round: R95, input ligand: FMN 200 uM
[3] = Eterna round: R95, input ligand: microRNA oligo, concentration not stated
[4] = Eterna round: R95, input ligand: none

Sequence	apparent KD of MS2 coat protein (input ligand: FMN 200 uM) [nM]	apparent KD of MS2 coat protein (input ligand: none) [nM]	apparent KD of MS2 coat protein [3] [nM]	further results
GGAUGCUGAGUAAGGAUAUGGUAGGCUUGCGCCUACCAGAAGGUACAUGAGGAUCACCCAUGUUAGCAUCCAGU [eternacac ex4r4 #3] (Eterna round: R97, puzzle: Brourd's mod of Exclusion 4)	19.6	16.2	–	–
GGAUUCUCGCAAGGAUAUCGCUUACAUCCUAAGCGAGAAGGUGCUACCAACUUGAGGAUCACCCAAGUGACUUGGGCCUAAAUA [Mutated MS2 EX1.27] (Eterna round: R96, puzzle: Exclusion NG 1)	112	62.9	–	apparent KD of MS2 coat protein [1]: 34.2 nM
GGCAAAUUUGUAAGGAUAUUGAGCAGCGAAGAGCUCGAGAAGGUACAUGAGGAUCACCCAUGUUUCUCAGACGC [Eternabot (Original) Solution 49] (Eterna round: R97, puzzle: Brourd's mod of Exclusion 4)	43.4	17.7	–	–
GGCAAUAACGAGGAUAUCCUAUGGGAAACCAUAGGAGAAGGUGUAACAUGAGGAUCACCCAUGUUCCUCAAGCC [Mat - Exclusion 6 - Eli Mod - D67] (puzzle: Exclusion 6)	–	–	34.7	apparent KD of MS2 coat protein [2]: 43.3 nM; apparent KD of MS2 coat protein [4]: 39.8 nM
GGCAAUAACGAGGAUAUCGUAUCGGAAACGAUACGAGAAGGUGUAACAUGAGGAUCACCCAUGUUCCUUAAGCC [Fiskers Ex 6 - 9] (puzzle: Exclusion 6)	–	–	23.5	–
GGCACACAUGAGGAUCACCCAUGUGAGGAUAUGCUGCGAUCGUCGAUAGACGAUAGCAGUAGAAGGCACAUGCC [Mat - Exclusion 1 - Eli Mod - D7] (Eterna round: R97, puzzle: Exclusion 1)	25.9	19.1	–	–
GGCAGACAUGAGGAUCACCCAUGUGAGGAUAUGGUGCGAUCGUCGAUAGACGAUAGCACCAGAAGGCACAUGCC [Mat - Exclusion 1 - Eli Mod - D4] (Eterna round: R97, puzzle: Exclusion 1)	159	34.5	–	–
GGCAUCGGAGGAUAUAUUUAUGGUGAUACCCGAAGCUUUCUACUUGAGGAUCACCCAAGUAGAAGGCCGAUGCC [jl-ex2.4.82 ViennaUCT mod] (Eterna round: R97, puzzle: Exclusion 2)	17.4	10.9	–	–
GGCAUGCAAGGAUAUACUUGCAGUGAUAUUCGAUAAAGUCUACUUGAGGAUCACCCAAGUAGAAGGUGCAUGCC [Exclusion 2 (Mod6 JL EX2 4.74 Vienna UCT mod of Mamaed)] (Eterna round: R97, puzzle: Exclusion 2)	35	25.8	–	–
GGCAUGUAAGGAUAUGCCACUGAGUGCUUUGCGCUCAGUAAGCAGAAGGUACAUGAGGAUCACCCAUGUGAUAA [jl-ex4-4.54 ViennaUCT mod] (Eterna round: R97, puzzle: Exclusion 4)	136	653	–	–
GGCGGACAUGAGGAUCACCCAUGUAAGGAUAUUAGGCGAUCGUCGAUAGACGAUAGCCUGAGAAGGUACGCGCC [Mat - Exclusion 1 - Eli Mod - D14] (Eterna round: R97, puzzle: Exclusion 1)	18.6	17.1	–	–
GGCGGACAUGAGGAUCACCCAUGUCAGGAUAUUAGGCGAUCGUCGAAAGACGAUAGCCUGAGAAGGGACGCGCC [Eli x1 4.13] (Eterna round: R97, puzzle: Exclusion 1)	20.6	17.7	–	–
GGCUGCAAUGUAGGAUAUCUGCACGUUUAGUGCAGAGAAGGACAUGAGGAUCACCCAUGUAUAGUAGCUUCGGCUACAGCAGCC [ENG1-D2] (Eterna round: R96, puzzle: Exclusion NG 1)	18.4	17.2	–	apparent KD of MS2 coat protein [1]: 11.4 nM
GGGAAGGGAGGAUAUGAGGAGGAGAACAUGAGGAUCACCCAUGUGAGGCCUCAGGAUCAAUCAGAAGGCCCGAUCC [AK-MS2ROC-r4-exclusion5-15.1] (Eterna round: R97, puzzle: Exclusion 5)	78.1	26	–	–
GGGCAGUCAGGAUAUACAUGAGGAUCACCCAUGUUGAGAUGUGAAAGGGCGGGAGUAGGUAGAAGGGACGAGAG [JR_Exclu3_Sub041] (puzzle: Exclusion 3)	–	–	22.8	apparent KD of MS2 coat protein [2]: 27.4 nM; apparent KD of MS2 coat protein [4]: 29.9 nM
GGGCGCUUAGGAUAUACAUGAGGAUCACCCAUGUGGCUCUCCACGUUGCAUAACAUUCGUAGAAGGAAGCGCAU [Eternabot (L1) Solution 69] (Eterna round: R97, puzzle: Exclusion 3)	252	35.8	–	–
GGGUAGUGAGGAUAUCGUUGUUAGGAGGAGUAGGUAGGAGGCGAGAAGGCACAUGAGGAUCACCCAUGUAUGGA [JR_Exclu4_Sub067] (puzzle: Exclusion 4)	–	–	30.7	–

Sequence	apparent KD of MS2 coat protein (input ligand: FMN 200 uM) [nM]	apparent KD of MS2 coat protein (input ligand: none) [nM]	apparent KD of MS2 coat protein [3] [nM]	further results
GGGUGACAUGAGGAUCACCCAUGUCAGGAUAUGAUACUAUGUACUUCGGUACAUAGUAUCAGAAGGGACAUCAU [Ex1-3: 14] (Eterna round: R96, puzzle: Exclusion 1)	112	424	–	apparent KD of MS2 coat protein [1]: 253 nM
GGGUGACAUGAGGAUCACCCAUGUCAGGAUAUGAUACUAUGUACUUCGGUACAUAGUAUCAGAAGGGACAUCAU [Ex1-3: 14] (puzzle: Exclusion 1)	–	–	216	–
GGGUGACAUGAGGAUCACCCAUGUCAGGAUAUGGGCUCGGGCUCGAAAGGGUCUGGGUCUAGAAGGGACUGCCC [-36.1, -35.1 kcal, 22%A (-3 GC series)] (Eterna round: R97, puzzle: Exclusion 1)	137	67	–	–
GGGUGUCGAGUUAGGAUAUCGAUGCCGUAACGGCUCGAGAAGGGACUUGAGGAUCACCCAAGUCUGGUCGAGGC [Rierariis] (Eterna round: R97, puzzle: Brourd's mod of Exclusion 4)	23.4	18.4	–	–
GGUACACAUGAGGAUCACCCAUGUCAGGAUAUCUGGAUACUCUUUAUUUUAGAUAUCCAGAGAAGGGACGUGCC [Ex1-3: 9Z] (puzzle: Exclusion 1)	–	–	29.7	–
GGUACUCAAAGAGUACCAAUACGAACAUGAGGAUCACCCAUGUAGGAUAUGCUACUCAAAGAGUAGCAGAAGGAUAUGAACCUC [Far Half Aptamer v10] (Eterna round: R96, puzzle: Exclusion NG 3)	407	227	–	apparent KD of MS2 coat protein [1]: 204 nM
GGUAGAGAGCAGGAUAUCUUGGGUAAGUAUUGUAGAGAAGGGCUCACAUGAGGAUCACCCAUGUGGUCCAAGAU [JL Dibiri mod 06] (puzzle: Exclusion 6)	–	–	12.8	–
GGUCCUGAUGAUUUCCUAUACAUGAGGAUCACCCAUGUAUGUUUAUUUUGUUUUUAGCUUUUUGGUCGUCAAUAAUA [Mod-Hoo-honey-3] (Eterna round: R97, puzzle: Sensor, turn-off variant 1)	43.3	43.4	–	–
GGUCCUGAUGAUUUUCUAUACAUGAGGAUCACCCAUGUAUGUGUAUUUUGUUUUUCGCUUUUUGGUCGUCAAUAAUA [Mod-Hoo-honey] (Eterna round: R97, puzzle: Sensor, turn-off variant 1)	43.8	44.3	–	–
GGUCCUGAUGAUUUUCUAUACAUGAGGAUCACCCAUGUAUGUUUAUUUUGUUUUUCGCUUUUUGGUCGUCAAUAAUA [Honey] (Eterna round: R97, puzzle: Sensor, turn-off variant 1)	44.1	41.6	–	–
GGUCGGCGAGGAUAUACAUGAGGAUCACCCAUGUGAUAGAUUAUCGCGAAAGCGUAAUGUAGAAGGCGCUGACG [jl-ex3-4.10 jl mod] (Eterna round: R97, puzzle: Exclusion 3)	1280	40.7	–	–
GGUCUACAUGAGGAUCACCCAUGUUAGGAUAUGCUUCGUCGGGCUAUACACGGCGGAUGUAGAAGGGACCUGGU [Eternabot (L1) Solution 83] (Eterna round: R97, puzzle: Exclusion 1)	16.7	20.2	–	–
GGUCUGCGAGGAUAUACAUGAGGAUCACCCAUGUGCGAGAAACUAGUGAGGUCGAUUGGUAGAAGGCGCGGACG [Mat - Exclusion 3 - Mod of JL D83] (puzzle: Exclusion 3)	–	–	113	apparent KD of MS2 coat protein [2]: 74.1 nM; apparent KD of MS2 coat protein [4]: 210 nM
GGUCUGCGAGGAUAUACAUGAGGAUCACCCAUGUGCGUGAUACUAGUGAGGUCGGUUGGUAGAAGGCGCGGACG [JL-ex3-2.08 salish99 mod] (puzzle: Exclusion 3)	–	–	245	apparent KD of MS2 coat protein [2]: 128 nM; apparent KD of MS2 coat protein [4]: 649 nM
GGUGAGCGAGGAUAUACAUGAGGAUCACCCAUGUGAGAGAAAUAAGUGAGGAAGAAAAGUAGAAGGCGCGAACG [Mat - Exclusion 3 - Mod of Salish D46] (puzzle: Exclusion 3)	–	–	25.3	apparent KD of MS2 coat protein [2]: 114 nM; apparent KD of MS2 coat protein [4]: 29.3 nM
GGUGCGUGUGUGAGGAUAUGCUGGUCCUUGGAUCAGCAGAAGGCACAUGAGGAUCACCCAUGUGGUGUCGUACC [salish99_Bmod_Ex4_029] (puzzle: Brourd's mod of Exclusion 4)	–	–	232	–
GGUGCGUUUGUGAGGAUAUGCUGGUCCUUGGUUCGGCAGAAGGCACAUGAGGAUCACCCAUGUGGUGUCGUCCC [salish99_Bmod_Ex4_046] (puzzle: Brourd's mod of Exclusion 4)	–	–	32	–
